Key:
[1] = target: T1, human GPR8 (Homo sapiens, UniProt P48146); test: Aequorin-based functional assay, WTA11 cells expressing GPR8; format: cell-based; details: in words
T1 construct: expressed in transfected cells; host or cells: CHO-K1 clone WTA11 (apoaequorin + Galpha16)
Method: (§1) In the experiments described in this section, the aequorin assay measured functional responses by recording the luminescence of aequorin in GPR7- and GPR8-expressing cells following addition of (potential) agonists, as previously described (Kotani, M. et al.). In brief, cells were collected from plates with PBS containing 5 mM EDTA, pelleted, resuspended at 5×10^6 cells/ml in DMEM-F12 medium containing 0.1% BSA, incubated with 5 μM coelenterazine H (Molecular Probes, Eugene, Oreg.) for 4 h at room temperature, and diluted in DMEM-F12 medium at a concentration of 5×10^5 cells/ml. Cells where then mixed with the ligands, and the light emission was recorded over 30 s using a Microlumat™ luminometer (Perkin Elmer, Norwalk, Conn.).

[2] = target: T2, human GPR7 (Homo sapiens, UniProt P48145); test: Aequorin-based functional assay, WTA11 cells expressing GPR7; format: cell-based; details: in words
T2 construct: expressed in transfected cells; host or cells: CHO-K1 clone WTA11 (mitochondrial apoaequorin + Galpha16)
T2 sequence (P48145 1-328): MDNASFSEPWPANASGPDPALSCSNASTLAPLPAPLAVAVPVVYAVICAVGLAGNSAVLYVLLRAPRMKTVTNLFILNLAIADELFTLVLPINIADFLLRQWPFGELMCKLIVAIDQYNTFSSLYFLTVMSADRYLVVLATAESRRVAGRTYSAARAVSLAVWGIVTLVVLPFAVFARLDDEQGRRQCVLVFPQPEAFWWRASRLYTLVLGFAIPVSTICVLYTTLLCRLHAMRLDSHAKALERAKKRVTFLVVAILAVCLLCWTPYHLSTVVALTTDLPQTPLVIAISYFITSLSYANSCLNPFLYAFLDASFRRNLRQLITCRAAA
Method: CHO—K1 cells (ATCC CRL-9618 (Bethesda, Md., USA)) were previously transfected with a plasmid encoding mitochondrial apoaequorin and Gα16. A clone obtained by limit dilution, called WTA11, was grown in Nutrient Mixture HAM's F12 medium supplemented with 10% fetal calf serum, 250 μg/ml zeocin, 100 units/ml penicillin and 100 μg/ml streptomycin. A bicistronic plasmid encoding the human GPR7 was transfected into WTA11 CHO—K1 cells, using Fugene 6 (Roche Diagnostics, Mannheim, Germany). Individual clones were selected two days after transfection with 400 μg/ml neomycin and GPR7-positive clones were confirmed by northern blotting, RT-PCR and sequencing.
Functional responses were analysed by recording the luminescence of aequorin following the addition of the ligand. In brief, cells were collected from plates with PBS containing 5 mM EDTA, pelleted, and resuspended at 10^7 cells/ml in DMEM-F12 medium and incubated with 5 μM coelenterainze H (Molecular Porbes) for 4 h at room temperature. Cells were then washed in DMEM-F12 medium and resuspended at a concentration of 2×10^6 cells/ml. Cells where then mixed with the ligand, and the light emission was recorded over 60 s using a Microlumat™ luminometer (Perkin Elmer). Results are expressed as relative light units (RLU) (FIG. 5).
as §1

T1 sequence (P48146 whole entry): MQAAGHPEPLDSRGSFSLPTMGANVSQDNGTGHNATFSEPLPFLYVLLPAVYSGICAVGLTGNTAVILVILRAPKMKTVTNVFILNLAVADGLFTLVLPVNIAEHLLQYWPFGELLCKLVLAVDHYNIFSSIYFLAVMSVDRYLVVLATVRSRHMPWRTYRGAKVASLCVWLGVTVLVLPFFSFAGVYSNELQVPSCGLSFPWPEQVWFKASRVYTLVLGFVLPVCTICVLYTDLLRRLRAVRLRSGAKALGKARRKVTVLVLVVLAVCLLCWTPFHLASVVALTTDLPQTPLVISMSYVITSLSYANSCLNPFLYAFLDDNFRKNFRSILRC

Substance | activity in aequorin-based functional assay on GPR8 [1] | activity in aequorin-based functional assay on GPR7 [2]
SPYA (PYAR; UniProt Q8NG41 51-54, looked up, fragment) [pro-L7 [51-54], human peptide derived from the L7 precursor] | inactive | inactive
SPYLW (UniProt Q8N729 58-62, looked up, fragment) [pro-L8 [58-62], human peptide derived from the L8 precursor] | inactive | inactive
WYKPAAGHSSYSVGRAAGLL [pro-L7 [25-44], human peptide derived from the L7 precursor] | active | active
